We go through 17 molecules from patent US20240270826A1 (NATIONAL RESEARCH COUNCIL OF CANADA, published 2024).

B1: NRCoV2-MRed20 VHH (VHH)
VHH: EVQLVESGGGSVQAGGSLRLSCAASGLSFSSYDMGWFRQAPGKEREFVAAIRESGSGTYYADSVKGRFTISRDNAKNTVYLQVSSLKPEDTAVYTCAAKPPFYGSGTYSTPRAYLYWGQGTQVTVSS
B2: NRCoV2-MRed07 VHH (VHH)
VHH: EVQLVESGGGLVQPGGSLTLSCAASGSIGPFNTMGWYRQAPGNQREPAAIITRGGVTNYADSVKGRFTISRDNAKNAVYLQMDSLKPDDTAVYYCYANYGWAIPYWGNGTQVTVSS
B3: NRCoV2-MRed22 VHH (VHH)
VHH: EVQLVESGGGLVQPGGSLRLSCAASGSVFASNAMGWYRQAPGKQRELVATISSRGSTNYADSVKGRFTISRDNAKNTVYLQMNSLGPEDTAVYYCNAREFTGFDYWGQGTQVTVSS
B4: NRCoV2-MRed18 VHH (VHH)
VHH: EVQLVESGGGLVQPGGSLRLSCAASTTVFGRNAMGWYRQAPGKERELVATVSDGGTPNYADSVKGRFTISRDNAKNTIYLQMNSLEPEDTAVYYCNYYNYYYGRNFWGQGTQVTVSS
B5: NRCoV2-MRed25 VHH (VHH)
VHH: EVQLVESGGGLVQAGGSLRLSCAASGHTFSRYGMGWFRQAPGKEREFVAAISWRGDSTYYRDSVNGRFTISRDNAKNTVYLGMNSLKPEDTAVYYCAAEMWGTATIVASRYTYWGQGTQVTVSS
B6: NRCoV2-MRed11 VHH (VHH)
VHH: EVQLVESGGGLVQAGGSLRLSCAASGFTFSSYAMSWHRQAPGKGLEWVSAINSGGGSTSYADSVKGRFAISRDNAKNTLYLQMNSLKPEDTAVYYCATTISDGSSWSTKSYRGQGTQVTVSS
B7: NRCoV2-MRed19 VHH (VHH)
VHH: EVQLVESGGGLVQPGGSLRLSCAASTIIFKGQTMGWFRQAPGNERELVATMTTSGSANYADSVKGRFTISRDNEKTVTLQMNSLKPEDTALYYCYMHSVYYGIDYWGKGTQVTVSS
B8: NRCoV2-MRed03 VHH (VHH)
VHH: EVQLVESGGGLVQPGGSLRLSCAAIGFTLDYYAIGWFRQAPGKEREGVSCISSSDGSTYYADSVKGRFTISRDNAKNTVYLQMNSLKPEDTAVYYCATDAFATCDSWYAQIAQYDFRGQGTQVTVSS
B9: NRCoV2-MRed06 VHH (VHH)
VHH: EVQLVESGGGLVQAGGSLRLSCAASGFTLAYYAIGWFRQAPGKEREGVSCISSSDGSAHYADSVKGRFTISRDNAKNTVSLQMNSLKPEDTAVYYCATDSFSSCSDYESGMDFWGKGTQVTVSS
B10: NRCoV2-02 VHH-Fc (Fc fusion)
chain: EVQLVESGGGLVQAGGSLRLSCAASGFTFSNYAMNWVRQAPGKGLEWVSGISGRGDDTRYADSVKGRFTISRDNAKNTLFLQMRSLRPEDTGVYRCTKGPDLYYFGSGYSDRGQGTQVTVSS
notes: bivalent VHH-Fc
B11: NRCoV2-05 VHH-Fc (Fc fusion)
chain: EVKLVQSGGGLVQPGGSLRLSCAASGFIFSNYAMNWVRQAPGKGLEWVSGINSGGGDTRYADSVKGRFTVSRDNAKNTLYLQMNSLKPEDTGVYYCSKGPVSSYYGSGYDYRGQGTQVTVSS
notes: bivalent VHH-Fc
B12: NRCoV2-MRed07 VHH-Fc (Fc fusion)
chain: B2 VHH
notes: bivalent VHH-Fc
B13: NRCoV2-04 VHH-Fc (Fc fusion)
chain: AVQLVDSGGGLVQPGGSLRLSCAASGSPFSNVVMAWYRQAPGKQRERVAFISGGGIADYIMSVKGRFTISRDNAKNTVYLQMNSLKPEDTAVYYCWSSYESTWGQGTQVTVSS
notes: bivalent VHH-Fc
B14: NRCoV2-MRed03 VHH-Fc (Fc fusion)
chain: B8 VHH
notes: bivalent VHH-Fc
B15: NRCoV2-SR16 VHH-Fc (Fc fusion)
chain: QVQLVQSAGGLVQAGGSLRLSCVVSGTTFSRYHMGWHRQAPGKQRDFVAGISTSGAVTYADSAKGRFTISRDNAKNTVYLEMNSLKLEDTALYYCNTGGWDYRSSTFIMGLNWGQGTQVTVSS
notes: bivalent VHH-Fc
B16: NRCoV2-MRed06 VHH-Fc (Fc fusion)
chain: B9 VHH
notes: bivalent VHH-Fc
B17: NRCoV2-SR02 VHH-Fc (Fc fusion)
chain: EVQLVDSGGGLVQAGGSLRLSCTASEFTLNYYSIGWFRQSPGKEREGVSCIRYSGGGIDYADSVKGRFTISRDNAKNTVYLTMNSLKPEDTAVYYCAADRLYSRACPTAGGRNYWGQGTQVTVSS
notes: bivalent VHH-Fc

The first assay concerns the target T1, SARS-CoV-2 S2 (aa686-1208) (Wuhan) (SARS-CoV-2 Wuhan, UniProt P0DTC2 686-1208).
T1 construct: NRC; FLAG, 6xHis tags
The assay can be described thus: SPR, antigen on chip.
B1 displayed a Kd of 0.299 nM, a koff of 3.38e-05 s⁻¹ and a kon of 113000 M⁻¹ s⁻¹.

Regarding B2, the binding result is on record as “no binding”.

B3 had a Kd of 1.05 nM, an off-rate constant (koff) of 0.000284 s⁻¹ and a kon of 270000 M⁻¹ s⁻¹.

Regarding B4, the Kd came to 6.8 nM, the off-rate (koff) stood at 0.00103 s⁻¹ and the kon was found to be 152000 M⁻¹ s⁻¹.

Regarding B5, the affinity, expressed as Kd, was 1.56 nM; the koff was 0.00019 s⁻¹; the kon was 122000 M⁻¹ s⁻¹.

On to B6, for which the Kd worked out at 5.21 nM, the koff was found to be 0.000213 s⁻¹ and the kon came to 40900 M⁻¹ s⁻¹.

As for B7, the Kd amounted to 8.2 nM, the koff came out at 0.00084 s⁻¹ and the on-rate constant (kon) is 102000 M⁻¹ s⁻¹.

Turning to B8, the binding result was “no binding”.

As for B9, the binding result is given as “no binding”.

In another assay the target is T2, SARS-CoV-2 S1 (aa16-685) (Wuhan) (SARS-CoV-2 Wuhan, UniProt P0DTC2 16-685).
T2 construct: NRC; FLAG, 6xHis tags
In words: SPR, antigen on chip.
Regarding B1, the binding result is given as “no binding”.

With B2, the affinity, expressed as Kd, was 0.378 nM; the koff was determined as 0.000427 s⁻¹; the kon is 1.13e+06 M⁻¹ s⁻¹.

In the case of B3, the binding result is on record as “no binding”.

B4: the binding result is “no binding”.

Regarding B5, the binding result is “no binding”.

B6: the binding result is listed as “no binding”.

Take B7: the binding result is listed as “no binding”.

As to B8, the Kd was 0.223 nM, the dissociation rate constant (koff) was determined as 6.15e-05 s⁻¹ and the kon is 276000 M⁻¹ s⁻¹.

On to B9, for which the Kd stood at 4.22 nM, the koff came out at 0.00157 s⁻¹ and the kon came to 371000 M⁻¹ s⁻¹.

Another assay has as its target T3, SARS-CoV-2 spike trimer S (Wuhan, SmT1) (SARS-CoV-2 Wuhan).
T3 construct: extracellular domain
In words: SPR, antigen on chip.
B1 came in with a dissociation constant (Kd) of 0.0918 nM, a koff of 1.46e-05 s⁻¹ and an association rate constant (kon) of 160000 M⁻¹ s⁻¹.

In turn, B2 returned a Kd of 0.236 nM, a dissociation rate constant (koff) of 0.000378 s⁻¹ and an association rate constant (kon) of 1.6e+06 M⁻¹ s⁻¹.

B3 showed a Kd of 0.506 nM, a koff of 0.000176 s⁻¹ and a kon of 347000 M⁻¹ s⁻¹.

B4 returned a Kd of 7.56 nM, a koff of 0.00153 s⁻¹ and a kon of 202000 M⁻¹ s⁻¹.

B5 came in with a Kd of 1.02 nM, a koff of 0.000115 s⁻¹ and a kon of 112000 M⁻¹ s⁻¹.

B6 registered a Kd of 17.8 nM, a koff of 0.000418 s⁻¹ and a kon of 23400 M⁻¹ s⁻¹.

B7 had a Kd of 5.01 nM, an off-rate (koff) of 0.000799 s⁻¹ and a kon of 159000 M⁻¹ s⁻¹.

For the molecule B8, the Kd is 0.52 nM, the koff is 8.14e-05 s⁻¹ and the kon came to 157000 M⁻¹ s⁻¹.

B9 showed a Kd of 4.8 nM, a koff of 0.000887 s⁻¹ and a kon of 185000 M⁻¹ s⁻¹.

In the next assay the target is T4, SARS-CoV-2 S on CHO-S cells (SARS-CoV-2, UniProt P0DTC2 14-1273).
T4 construct: whole, on cells
The assay can be described thus: flow cytometry, CHO-S cells.
B10 came in with a Bmax of 18600 and an EC50 of 0.3 nM.

B11 displayed a Bmax of 17400 and an EC50 of 0.5 nM.

Consider B12, for which the Bmax came to 8670 and the midpoint of the response, the EC50, lay at 132 nM.

For the molecule B13, the Bmax came out at 15500 and a half-maximal response (EC50) required 1.3 nM.

The molecule B14 displayed a Bmax of 12000 and an EC50 of 15.1 nM.

B15: the Bmax is 11600 and the midpoint of the response, the EC50, lay at 1.4 nM.

In turn, B16 had a Bmax of 9020 and an EC50 of 8.5 nM.

The target of a further assay is T1, SARS-CoV-2 S2 (aa686-1208) (Wuhan). In words: ELISA.
For the molecule B10, the binding result was “no binding (tested: 13 nM)”.

Take B11: the binding result is listed as “no binding (tested: 13 nM)”.

As for B12, the binding result is reported as “no binding (tested: 13 nM)”.

With B13, the binding result is given as “no binding (tested: 13 nM)”.

Regarding B14, the binding result is given as “no binding (tested: 13 nM)”.

Turning to B15, the binding result is recorded as “no binding (tested: 13 nM)”.

For the molecule B16, the binding result is “no binding (tested: 13 nM)”.

Another assay concerns the target SARS-CoV spike (S) (SARS-CoV, UniProt P59594 14-1195). In words: ELISA.
As for B10, the binding result is recorded as “no binding (tested: 13 nM)”.

In the case of B11, the binding result is given as “no binding (tested: 13 nM)”.

For the molecule B12, the binding result is reported as “no binding (tested: 13 nM)”.

For the molecule B13, the binding result is recorded as “no binding (tested: 13 nM)”.

For B14, the binding result is on record as “no binding (tested: 13 nM)”.

For B15, the binding result was “no binding (tested: 13 nM)”.

As for B16, the binding result is given as “no binding (tested: 13 nM)”.

A further assay has as its target SARS-CoV-2 S1-NTD (aa16-305) (SARS-CoV-2 Wuhan, UniProt P0DTC2 16-305). The assay can be described thus: ELISA.
B10: the binding result is listed as “no binding (tested: 13 nM)”.

In the case of B11, the binding result is “no binding (tested: 13 nM)”.

On to B13, for which the binding result is listed as “no binding (tested: 13 nM)”.

A further assay concerns the target Human SARS-CoV-2_Wuhan S (SmT1) (SARS-CoV-2 (Wuhan), UniProt P0DTC2 14-1208). In words: flow cytometry SVNA: VHH-Fc inhibits S binding to ACE2 on Vero E6 cells.
In turn, B17 yielded an IC50 of 1.7 nM.
